We go through two substances from paper PMC6208443, “Arabidopsis AGDP1 links H3K9me2 to DNA methylation in heterochromatin” (Nature Communications, 2018).

In experiment [1] the target is RsAGDP1 AGD12 (residues 26–180) (Raphanus sativus). The experiment in a line: ITC; Microcal PEAQ-ITC, 25 °C; protein at 0.1 mM, peptide at 1.0–1.5 mM in the same buffer; fit with Origin 7.0. In general terms: In ITC the heat of successive injections is recorded.
The target in experiment [2] is full-length AtAGDP1 (Arabidopsis thaliana) (UniProt Q500V5). The description is as above.
full-length AtAGDP1 (Arabidopsis thaliana), sequence (Q500V5 whole entry): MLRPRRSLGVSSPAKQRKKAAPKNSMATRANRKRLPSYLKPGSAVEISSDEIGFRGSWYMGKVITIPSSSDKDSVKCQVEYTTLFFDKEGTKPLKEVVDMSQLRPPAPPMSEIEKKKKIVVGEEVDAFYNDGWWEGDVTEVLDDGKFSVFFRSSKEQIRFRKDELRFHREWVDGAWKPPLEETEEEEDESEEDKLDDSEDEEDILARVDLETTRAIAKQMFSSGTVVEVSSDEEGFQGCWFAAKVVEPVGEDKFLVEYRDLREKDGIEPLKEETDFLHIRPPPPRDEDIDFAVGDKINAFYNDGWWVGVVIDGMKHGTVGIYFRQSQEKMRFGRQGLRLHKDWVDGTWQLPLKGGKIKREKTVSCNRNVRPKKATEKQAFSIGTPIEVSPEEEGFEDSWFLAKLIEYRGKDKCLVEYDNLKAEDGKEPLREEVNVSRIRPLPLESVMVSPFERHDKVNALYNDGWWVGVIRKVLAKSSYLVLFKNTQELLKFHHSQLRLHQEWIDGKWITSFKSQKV

In experiment [1], H3K4me3K9me2 peptide gave a fold decrease of binding against H3K9me2 of 5 fold.
As for H3K9me2 peptide (ITC), the stoichiometry N (as a rule, the number of molecules, sites or subunits per partner or assembly) in experiment [2] worked out at 3.
